From US20100081621

Biological target: APOBEC3G D316R/D317R D316R,D317R (Homo sapiens) (UniProt Q9HC16)
Details: deamination; middle and 3' C deaminated at about same rate

APOBEC3G D316R/D317R D316R,D317R (Homo sapiens), sequence (Q9HC16 whole entry D316R/D317R): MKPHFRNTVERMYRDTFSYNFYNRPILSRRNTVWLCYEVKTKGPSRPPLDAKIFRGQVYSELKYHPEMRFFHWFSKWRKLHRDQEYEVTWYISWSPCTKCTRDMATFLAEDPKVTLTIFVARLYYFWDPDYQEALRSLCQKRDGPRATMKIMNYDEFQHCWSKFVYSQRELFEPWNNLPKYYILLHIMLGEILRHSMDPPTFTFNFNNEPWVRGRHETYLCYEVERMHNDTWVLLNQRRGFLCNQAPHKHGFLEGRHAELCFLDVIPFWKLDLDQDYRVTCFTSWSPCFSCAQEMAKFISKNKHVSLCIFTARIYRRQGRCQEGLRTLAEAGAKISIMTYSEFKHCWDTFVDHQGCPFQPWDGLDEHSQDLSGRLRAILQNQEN

FdT ssDNA deamination substrate with CCC motif
activity: 1.6 fold of wt
